For one experiment, the target named is HLA-A*02:01 (human). Put plainly: T2-A24 MHC class I stabilization, flow cytometry, anti-HLA-A02 BB7.2-FITC, peptide 100 ug/mL. As to conditions: remark: other sources report otherwise. A general note: A flow cytometer gives signals particle by particle.

With RGYVYQGL (modifications not checked) [VSV52-59 peptide], the MFI (solvent ratio) (ratio to solvent) with HLA-A*24:02 (human) stood at 1.

Take EADPTGHSY [MAGE-1161-169 peptide]: the MFI (solvent ratio) (ratio to solvent) with HLA-A*02:01 (human) is 1.

Source of the values: patent US20170360911A1.
